Data on 43 molecules can be found in article PMC13376213, “Systematic discovery of motif-based interactions of the auxiliary domains of USP family deubiquitinases” (Nature Communications, 2026).

Ends that are not written are not given here.

USP33 DUSP2 domain (human), sequence (Q8TEY7 whole entry, the tested form may be a part): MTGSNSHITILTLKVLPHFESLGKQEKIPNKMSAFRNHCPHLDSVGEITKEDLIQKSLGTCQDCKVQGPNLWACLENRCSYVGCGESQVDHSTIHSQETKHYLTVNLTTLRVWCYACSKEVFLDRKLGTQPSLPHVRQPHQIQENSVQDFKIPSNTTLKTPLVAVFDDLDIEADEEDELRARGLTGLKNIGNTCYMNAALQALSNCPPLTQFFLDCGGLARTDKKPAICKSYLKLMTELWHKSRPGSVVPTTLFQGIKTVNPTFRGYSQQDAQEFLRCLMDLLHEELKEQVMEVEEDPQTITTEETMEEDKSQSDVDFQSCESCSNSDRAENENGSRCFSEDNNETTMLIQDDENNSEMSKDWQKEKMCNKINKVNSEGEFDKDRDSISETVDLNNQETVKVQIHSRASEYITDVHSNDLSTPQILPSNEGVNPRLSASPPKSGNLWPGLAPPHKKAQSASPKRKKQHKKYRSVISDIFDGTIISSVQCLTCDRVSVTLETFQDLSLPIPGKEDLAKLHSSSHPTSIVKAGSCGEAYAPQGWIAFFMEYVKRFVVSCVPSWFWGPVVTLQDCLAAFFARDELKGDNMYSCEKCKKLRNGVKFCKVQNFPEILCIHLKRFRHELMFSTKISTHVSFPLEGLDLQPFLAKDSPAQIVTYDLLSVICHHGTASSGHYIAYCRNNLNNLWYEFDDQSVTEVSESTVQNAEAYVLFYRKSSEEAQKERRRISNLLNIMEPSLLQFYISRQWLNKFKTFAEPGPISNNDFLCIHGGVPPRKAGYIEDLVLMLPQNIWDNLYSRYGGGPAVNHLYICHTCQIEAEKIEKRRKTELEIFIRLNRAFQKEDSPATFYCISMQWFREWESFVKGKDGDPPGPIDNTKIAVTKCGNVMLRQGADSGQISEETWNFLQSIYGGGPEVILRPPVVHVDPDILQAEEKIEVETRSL
USP20 DUSP2 domain (human), sequence (Q9Y2K6 whole entry, the tested form may be a part): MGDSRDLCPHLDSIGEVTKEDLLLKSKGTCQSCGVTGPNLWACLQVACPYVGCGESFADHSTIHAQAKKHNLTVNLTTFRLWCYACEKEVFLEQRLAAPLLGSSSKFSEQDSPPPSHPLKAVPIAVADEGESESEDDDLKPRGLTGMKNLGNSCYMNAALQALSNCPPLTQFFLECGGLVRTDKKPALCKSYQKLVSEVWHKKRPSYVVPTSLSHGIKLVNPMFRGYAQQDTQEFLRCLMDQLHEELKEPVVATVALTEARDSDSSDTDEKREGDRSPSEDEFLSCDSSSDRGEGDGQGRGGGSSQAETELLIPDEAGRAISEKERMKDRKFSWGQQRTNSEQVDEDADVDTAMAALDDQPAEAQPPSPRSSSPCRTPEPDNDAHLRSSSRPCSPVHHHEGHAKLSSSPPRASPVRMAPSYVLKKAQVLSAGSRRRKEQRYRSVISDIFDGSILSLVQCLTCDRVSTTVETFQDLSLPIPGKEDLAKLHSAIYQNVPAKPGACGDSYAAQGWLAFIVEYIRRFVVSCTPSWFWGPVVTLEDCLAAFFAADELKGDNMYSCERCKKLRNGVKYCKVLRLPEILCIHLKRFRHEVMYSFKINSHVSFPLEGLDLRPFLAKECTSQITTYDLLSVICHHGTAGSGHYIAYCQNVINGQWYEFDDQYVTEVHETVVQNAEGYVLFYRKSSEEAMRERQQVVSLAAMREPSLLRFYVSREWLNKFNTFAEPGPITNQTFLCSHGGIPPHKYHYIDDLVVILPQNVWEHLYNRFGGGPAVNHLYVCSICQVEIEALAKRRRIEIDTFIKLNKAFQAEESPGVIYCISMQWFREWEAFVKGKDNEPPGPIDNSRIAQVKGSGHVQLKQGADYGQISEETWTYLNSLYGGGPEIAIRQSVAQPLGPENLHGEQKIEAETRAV
USP20 zf-UBP domain (human), sequence (Q9Y2K6 whole entry, the tested form may be a part): as above

The target of one assay is T1, CYLD CAP-Gly3 domain, GST-tagged, Q9NQC7.
T1 chain: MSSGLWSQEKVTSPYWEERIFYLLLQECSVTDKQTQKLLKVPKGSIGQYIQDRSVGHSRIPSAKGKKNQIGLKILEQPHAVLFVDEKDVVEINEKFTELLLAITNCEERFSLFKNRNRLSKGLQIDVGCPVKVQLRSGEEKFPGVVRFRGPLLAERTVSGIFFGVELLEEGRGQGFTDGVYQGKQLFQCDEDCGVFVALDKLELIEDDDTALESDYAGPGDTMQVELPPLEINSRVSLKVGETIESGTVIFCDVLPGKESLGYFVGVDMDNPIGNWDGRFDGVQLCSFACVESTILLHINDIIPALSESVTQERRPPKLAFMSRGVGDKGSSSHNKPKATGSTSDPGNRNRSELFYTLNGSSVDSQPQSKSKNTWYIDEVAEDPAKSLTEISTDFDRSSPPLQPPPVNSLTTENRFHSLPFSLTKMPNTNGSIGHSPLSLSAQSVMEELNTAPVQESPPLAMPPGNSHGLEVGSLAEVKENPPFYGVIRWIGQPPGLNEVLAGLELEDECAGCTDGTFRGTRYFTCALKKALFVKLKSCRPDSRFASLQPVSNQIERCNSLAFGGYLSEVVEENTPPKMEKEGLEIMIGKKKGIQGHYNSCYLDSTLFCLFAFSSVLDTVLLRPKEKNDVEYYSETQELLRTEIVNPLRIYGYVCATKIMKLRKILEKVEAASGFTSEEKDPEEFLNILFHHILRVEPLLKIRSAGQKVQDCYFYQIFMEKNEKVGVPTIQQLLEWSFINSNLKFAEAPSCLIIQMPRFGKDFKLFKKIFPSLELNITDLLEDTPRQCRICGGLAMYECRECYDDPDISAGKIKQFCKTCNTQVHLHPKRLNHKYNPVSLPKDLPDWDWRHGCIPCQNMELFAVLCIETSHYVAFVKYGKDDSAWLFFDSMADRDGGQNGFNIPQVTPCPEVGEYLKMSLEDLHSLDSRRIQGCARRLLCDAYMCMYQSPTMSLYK
Description: peptide SPOT array alanine scanning. Particulars: chain shown with the change;; parent: est. 0; read off a plot.
For the molecule GGVFKAEIYIPLQEED [HECTD4_(3003-3018) peptide, Q9Y4D8 D3008A], the other: signal change (%) was -95%.
With GGVFKDEIAIPLQEED [HECTD4_(3003-3018) peptide, Q9Y4D8 Y3011A], the other: signal change (%) is -95%.
As for GGVFKDEAYIPLQEED [HECTD4_(3003-3018) peptide, Q9Y4D8 I3010A], the other: signal change (%) is -95%.
Still for that read-out and setting: the figure for GGVFKDEIYIPLAEED [HECTD4_(3003-3018) peptide, Q9Y4D8 Q3015A] is -15%; for GGVFKDEIYIPLQAED [HECTD4_(3003-3018) peptide, Q9Y4D8 E3016A] it is -25%; for GGVFADEIYIPLQEED [HECTD4_(3003-3018) peptide, Q9Y4D8 K3007A] it is -95%.
The same measure, in the same setting: the figure for GGVFKDAIYIPLQEED [HECTD4_(3003-3018) peptide, Q9Y4D8 E3009A] is -95%; for GGVFKDEIYIPLQEEA [HECTD4_(3003-3018) peptide, Q9Y4D8 D3018A] it is 35%.
The same measure, in the same setting: as for GAVFKDEIYIPLQEED [HECTD4_(3003-3018) peptide, Q9Y4D8 G3004A], the figure is -95%; as for AGVFKDEIYIPLQEED [HECTD4_(3003-3018) peptide, Q9Y4D8 G3003A], -5%.
On to GGAFKDEIYIPLQEED [HECTD4_(3003-3018) peptide, Q9Y4D8 V3005A], for which the other: signal change (%) was -70%.
Still for that read-out and setting: as for GGVFKDEIYIPAQEED [HECTD4_(3003-3018) peptide, Q9Y4D8 L3014A], the figure is 50%; as for GGVFKDEIYIALQEED [HECTD4_(3003-3018) peptide, Q9Y4D8 P3013A], -85%.
Same read-out and setting: as for GGVAKDEIYIPLQEED [HECTD4_(3003-3018) peptide, Q9Y4D8 F3006A], the figure is -95%; as for GGVFKDEIYAPLQEED [HECTD4_(3003-3018) peptide, Q9Y4D8 I3012A], -90%.
Regarding GGVFKDEIYIPLQEAD [HECTD4_(3003-3018) peptide, Q9Y4D8 E3017A], the other: signal change (%) was 55%.

A further assay addresses T2, CYLD CAP-Gly1 domain, GST-tagged, Q9NQC7.
T2 chain: T1 chain
Description: peptide SPOT array alanine scanning. The conditions noted are these: chain shown with the change;; parent: est. 0; read off a plot.
In the case of PDAELQRMEAEAERRR [RBM25_(558-573) peptide, P49756 Q567A], the other: signal change (%) is -25%.
For ADAELQRMEQEAERRR [RBM25_(558-573) peptide, P49756 P558A], the other: signal change (%) is -5%.
Same read-out and setting: as for PDAELQRMAQEAERRR [RBM25_(558-573) peptide, P49756 E566A], the figure is -15%; as for PDAEAQRMEQEAERRR [RBM25_(558-573) peptide, P49756 L562A], -95%; as for PDAELQRMEQEAERAR [RBM25_(558-573) peptide, P49756 R572A], -95%.
Same read-out and setting: as for PDAELQAMEQEAERRR [RBM25_(558-573) peptide, P49756 R564A], the figure is -65%.
On the same count and under the same terms, as for PDAELQRMEQAAERRR [RBM25_(558-573) peptide, P49756 E568A], the figure is -15%.
Consider PDAELQRMEQEAEARR [RBM25_(558-573) peptide, P49756 R571A], for which the other: signal change (%) was -40%.
PAAELQRMEQEAERRR [RBM25_(558-573) peptide, P49756 D559A]: the other: signal change (%) is -10%.
Still for that read-out and setting: the figure for PDAELQRAEQEAERRR [RBM25_(558-573) peptide, P49756 M565A] is -90%; for PDAELQRMEQEAARRR [RBM25_(558-573) peptide, P49756 E570A] it is -10%.
In the case of PDAELQRMEQEAERRA [RBM25_(558-573) peptide, P49756 R573A], the other: signal change (%) is -95%.
The same measure, in the same setting: as for PDAELARMEQEAERRR [RBM25_(558-573) peptide, P49756 Q563A], the figure is -35%; as for PDAALQRMEQEAERRR [RBM25_(558-573) peptide, P49756 E561A], -30%.

The target of the next assay is USP22 zf-UBP domain, tag cleaved (for FP) (human) (UniProt Q9UPT9). Description: fluorescence polarisation; saturation or displacement not stated for this experiment; 50 mM phosphate buffer pH 7.4, room temperature.
USP22 zf-UBP domain, tag cleaved (for FP) (human), sequence (Q9UPT9 whole entry, the tested form may be a part): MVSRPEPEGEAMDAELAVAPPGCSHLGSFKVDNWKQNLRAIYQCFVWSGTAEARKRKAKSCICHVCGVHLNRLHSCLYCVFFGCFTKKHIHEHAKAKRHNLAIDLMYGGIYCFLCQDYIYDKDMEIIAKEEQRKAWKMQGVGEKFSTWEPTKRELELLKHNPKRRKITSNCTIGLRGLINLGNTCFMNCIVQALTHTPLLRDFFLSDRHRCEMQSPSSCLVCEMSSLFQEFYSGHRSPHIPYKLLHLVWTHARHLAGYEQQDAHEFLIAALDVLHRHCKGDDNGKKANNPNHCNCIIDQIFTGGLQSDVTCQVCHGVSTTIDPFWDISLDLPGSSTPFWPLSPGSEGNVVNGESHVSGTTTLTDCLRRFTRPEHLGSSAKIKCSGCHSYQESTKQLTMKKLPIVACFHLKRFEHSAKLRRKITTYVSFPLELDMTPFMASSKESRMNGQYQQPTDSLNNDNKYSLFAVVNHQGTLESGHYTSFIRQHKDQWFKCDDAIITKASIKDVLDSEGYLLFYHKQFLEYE
Details: not given
A general note: Fluorescence polarisation rises when a labelled molecule tumbles more slowly, as on binding a larger partner.
For orientation: Kd means the free concentration of one partner at which half of the binding sites on the other are occupied at equilibrium, for simple one-to-one binding. A lower Kd goes with tighter binding. Take VPSLDDFAGQSWSSWVERADLP-NH2 (also: N-terminus FITC-labeled or acetylated) [ATXN7L2_(18-39) peptide]: the Kd was 3 µM.
The same measure, in the same setting: as for VPSPEAFLGKPWSSWID-NH2 (also: N-terminus FITC-labeled or acetylated) [ATXN7L1_(36-52) peptide], the figure is 11 µM; as for VPSPEAFLGKPWSSWIDAAKLH-NH2 (also: N-terminus FITC-labeled or acetylated) [ATXN7L1_(36-57) peptide], 0.1 µM; as for VPSLDDFAGQSWSSWVE-NH2 (also: N-terminus FITC-labeled or acetylated) [ATXN7L2_(18-34) peptide], 19 µM.

For another assay, the target named is USP33 zf-UBP domain (human) (UniProt Q8TEY7). Description: fluorescence polarisation; displacement: serial dilution of the unlabelled peptide against the domain (at two-fold the KD of the FITC-labelled peptide) in complex with 10 nM FITC-labelled peptide; 50 mM phosphate buffer pH 7.4; room temperature; three technical replicates; sigmoidal dose-response fit.
USP33 zf-UBP domain (human), sequence (Q8TEY7 whole entry, the tested form may be a part): as the sequence (Q8TEY7 whole entry, the tested form may be a part) above
Details: not given
The molecule Ac-YTNSSGKMALNSPQPG-NH2 [IRAG1 302-316 peptide] showed a Kd of 7.86 µM.
Same read-out and setting: the figure for Ac-YEKVKRRLDLDID-NH2 [CCP110 582-593 peptide] is 260 µM; for Ac-YPFQPGRMALESQSPG-NH2 [USP19 874-888 peptide] it is 40.6 µM.

The next assay addresses USP20 DUSP2 domain (human) (UniProt Q9Y2K6). The description is as above.
Details: not given
As for Ac-PYIPMDGEDFQLSPICPE-NH2 [HIF2A 531-548 peptide], the Kd was 235 µM.
Still for that read-out and setting: the figure for Ac-QLEEELFQLRQGPAGY-NH2 [CCDC88B 947-961 peptide] is 22.4 µM.
On the same count and under the same terms, as for Ac-PYIPMDKDFQLRSFDQLS-NH2 [HIF1A 564-581 D570K peptide], the figure is 18.8 µM.
Same read-out and setting: as for Ac-DVVDDFQLQHRHGPGY-NH2 [MFSD2B 395-409 peptide], the figure is 44.7 µM; as for Ac-SDDDLAWNIAPQGLQ-NH2 [GPR137B 348-362 peptide, unlabelled], 10.2 µM.

Another assay addresses USP33 DUSP2 domain (human) (UniProt Q8TEY7). The assay is described as above.
Details: not given
Ac-PYIPMDDDFQARSFDQLS-NH2 [HIF1A 564-581 L574A peptide] had a Kd of 227 µM.
In turn, Ac-PYIPMDGEDFQLSPICPE-NH2 [HIF2A 531-548 peptide] registered a Kd of 1180 µM.
On the same count and under the same terms, as for Ac-QLEEELFQLRQGPAGY-NH2 [CCDC88B 947-961 peptide], the figure is 40.1 µM; as for Ac-PYIPMDKDFQLRSFDQLS-NH2 [HIF1A 564-581 D570K peptide], 9.89 µM.
Molecule Ac-DVVDDFQLQHRHGPGY-NH2 [MFSD2B 395-409 peptide] came in with a Kd of 0.75 µM.
With Ac-SDDDLAWNIAPQGLQ-NH2 [GPR137B 348-362 peptide, unlabelled], the equilibrium dissociation constant (Kd) worked out at 228 µM.

A further assay has as its target USP20 zf-UBP domain (human) (UniProt Q9Y2K6). The assay is described as above.
Details: not given
Take Ac-YTNSSGKMALNSPQPG-NH2 [IRAG1 302-316 peptide]: the Kd worked out at 9.02 µM.
The molecule Ac-YEKVKRRLDLDID-NH2 [CCP110 582-593 peptide] came in with a Kd of 505 µM.
Same read-out and setting: as for Ac-YPFQPGRMALESQSPG-NH2 [USP19 874-888 peptide], the figure is 162 µM.
